Reference: patent publication US10716826B2, “Compositions for overcoming anti-cancer drug-resistance or compositions for anti-cancer activity employing CAGE-derived peptides” (L-Base Co., Ltd., priority 2015, dated 2020)
“Also recorded” adds a separate entry of the source.

Experiments:
[1] = system: Malme3M^R, SNU38M^R cell strains; assay: apoptosis against an anticancer drug (FAK and PARP cleavage, Western blot); assay type: cell-based; details: melanoma and liver cancer cell strains
CAGE-GSK3β inter-binding [2] = biological target: T1, CAGE-GSK3β inter-binding (Homo sapiens, UniProt Q86TM3); assay: Western blot and immunoprecipitation in taxol-resistance melanoma cell strain; assay type: cell-based; parameters: endogenous in cells; host or cells: Malme3M^R-Taxol (A2); Malme3M^R, SNU387^R (printed SNU3SM^R/SNU38^R), AGS^R (A3); details: Malme3M^R-Taxol; for CAGE-GSK3β inter-binding: immunoprecipitation
Procedure: (§1) To confirm an affection of CAGE-derived oligopeptide to the interbinding and GSK3β Ser9 phosphorylation of a CAGE, a GTGKT (Sequence No.1) peptide and a specific-residue deleted and mutated peptide based on the GTGKT peptide were prepared and, after collecting proteins by a known method after transfection into respective cell stains, the Western blot and the immunoprecipitation were preformed to inspect an anticancer drug-resistance induction mechanism of the CAGE. GTGKT includes ATP binding sites of CAGE (the right panel of FIG. 3A).
To examine residues necessary for anticancer activity of a GTGKT peptide, after preparing a peptide for which the 273′rd Thr residue is deleted (GTGK) or substituted (GTGKA, sequence No. 2) with Ala in CAFE, and preparing a peptide for which the 272′nd […] residue is substituted (GTGRT) with Arg, the same manner was performed.

CAGE-GSK3β inter-binding [3] = biological target: T1, CAGE-GSK3β inter-binding; assay: Western blot and immunoprecipitation in celastrol-resistance cell strains; assay type: cell-based; parameters: endogenous in cells; host or cells: Malme3M^R-Taxol (A2); Malme3M^R, SNU387^R (printed SNU3SM^R/SNU38^R), AGS^R (A3); details: for expression level of Cyclin D1 / inter-binding between CAGE and GSK3β proteins: celastrol-resistance cell strains (melanoma, liver cancer, gastric cancer)
Procedure: as §1

[4] = biological target: reassociated CAGE protein (Homo sapiens, UniProt Q86TM3); assay: in vitro kinase assay: phosphorylation of GSK3β Ser9 peptide by reassociated CAGE protein; assay type: biochemical; details: RTTSFAE peptide as substrate
Procedure: A GSK3β-described peptide RTTSFAE including GSK3β Ser9 residues was prepared for a temperament (the left panel of FIG. 3A) and phosphorylation of the GSK3β Ser9 residues by a reassociated CAGE protein was confirmed through an in vitro kinase assay by using the RTTSFAE peptide as the temperament (the left panel of FIG. 4B).

[5] = system: Malme3M^R, SNU38M^R, AGS^R cell strains; assay: MTT assay of anticancer drug resistance; assay type: cell-based; details: celastrol-resistance cell strains
Procedure: To confirm anticancer activity of a GTGKT-based oligopeptide, the MIT assay and the western blot according to a known method was performed using an immunodeficiency mouse. Then, it could be seen how the GKCKT-based oligopeptide affected tumor generation.
After transfecting a GTGKT peptide into melanoma, liver-cancer, and gastric-cancer cell strains (Malme3M^R, SNU38M^R, AGS^R) by concentration, anticancer drug resistance was inspected through the MTT assay.

[6] = system: tumor from Malme3MR, SNU38R cell strains; assay: tumor generation in immunodeficiency mouse, peptide injected into tail vein; assay type: in vivo; details: 5 times in total every 3 days for 2 weeks
Procedure: If a tumor grew up to a size enough to be measured, a digital gauge was used to a size of the tumor in a uniform interval and the tumor size was calculated by a known equation (the widest length [the shortest length]^2×0.5). After inducing a tumor in the same manner, taxol was injected into a vein of the mouse's tail for inspection to tumor generation and anticancer drug resistance.
To inspect an affection of GKGKT peptide to tumor generation, after injecting high-CAGE melanoma and liver-cancer cell strains (Malme3MR, SNU38R) into the side abdomen of an immunodeficiency mouse by a known method and then inducing a tumor, the GTGKT peptide was injected into a vein of the mouse's tail 5 times in total every 3 days for 2 weeks and a size variation of the tumor was examined. As a result, it could be seen from FIG. 8A that the GTGKT peptide reduced a size of the tumor due to the cancer cell strains.

CAGE = biological target: T2, CAGE (Homo sapiens, UniProt Q86TM3); assay: binding of peptide to CAGE in anticancer drug-resistance cell strains
T2 construct: endogenous in cells; host or cells: anticancer drug-resistance cell strains (Malme3M^R, SNU387^R)

CAGE-GSK3β inter-binding [7] = biological target: T1, CAGE-GSK3β inter-binding; assay: Western blot and immunoprecipitation of tumor tissue after the mouse experiment; assay type: in vivo; parameters: from tissue; host or cells: xenograft tumour tissue from Malme3M^R / SNU387^R cells in immunodeficiency mouse
Source text: After finishing the experiment, a protein was collected from the tumor tissue through a known method, and then activity of protein expression and an inter-binding state were conformed through the Western blot and the immunoprecipitation.

T1 sequence (Q86TM3 whole entry): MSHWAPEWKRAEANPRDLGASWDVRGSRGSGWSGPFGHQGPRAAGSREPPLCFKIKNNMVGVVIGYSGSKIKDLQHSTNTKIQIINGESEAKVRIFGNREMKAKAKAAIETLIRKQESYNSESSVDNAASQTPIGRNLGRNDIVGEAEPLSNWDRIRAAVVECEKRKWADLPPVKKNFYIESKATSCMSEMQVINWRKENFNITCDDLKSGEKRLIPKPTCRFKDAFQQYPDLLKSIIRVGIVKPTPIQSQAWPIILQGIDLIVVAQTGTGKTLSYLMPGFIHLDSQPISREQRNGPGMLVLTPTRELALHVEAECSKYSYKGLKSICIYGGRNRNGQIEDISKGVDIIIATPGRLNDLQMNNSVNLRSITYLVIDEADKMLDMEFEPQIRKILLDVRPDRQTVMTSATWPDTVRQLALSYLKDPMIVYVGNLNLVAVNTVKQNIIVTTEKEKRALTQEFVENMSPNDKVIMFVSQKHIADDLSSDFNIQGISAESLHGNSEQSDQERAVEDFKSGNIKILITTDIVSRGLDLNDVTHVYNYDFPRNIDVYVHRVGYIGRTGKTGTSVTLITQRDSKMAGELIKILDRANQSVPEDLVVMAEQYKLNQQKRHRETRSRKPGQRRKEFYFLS
reassociated CAGE protein, sequence (Q86TM3 whole entry): as above
T2 sequence (Q86TM3 whole entry): as above

| protein accumulation / expression level of Cyclin D1 (CAGE-GSK3β inter-binding [2]; Western blot) | CAGE-GSK3β inter-binding (CAGE-GSK3β inter-binding [2]) | inter-binding between CAGE and GSK3β proteins (CAGE-GSK3β inter-binding [3]) | phosphorylation of GSK3β Ser9 residues due to the reassociated CAGE protein [4] | phosphorylation of GSK3β Ser9 residues due to the reassociated CAGE protein ([4]; listed as GTCKT) | binding to CAGE (CAGE) | expression of MDR1 in tumor tissue (CAGE-GSK3β inter-binding [7]; Western blot) | phosphorylation state of GSK3β Ser9 in tumor tissue (CAGE-GSK3β inter-binding [7]; Western blot) | protein expression of Cyclin D1 in tumor tissue (CAGE-GSK3β inter-binding [7]; Western blot) | inter-binding between CAGE and GSK3β proteins in tumor tissue (CAGE-GSK3β inter-binding [7]; immunoprecipitation) | phosphorylation of GSK3β Ser9 residues (CAGE-GSK3β inter-binding [2]; Western blot) | phosphorylation state of GSK3β Ser9 (CAGE-GSK3β inter-binding [3]; Malme3M^R, SNU38^R treated with peptide) | Substance | apoptosis against an anticancer drug [1] | expression level of Cyclin D1 (CAGE-GSK3β inter-binding [3]) | anticancer drug resistance [5] | size of the tumor [6] |
| --- | --- | --- | --- | --- | --- | --- | --- | --- | --- | --- | --- | --- | --- | --- | --- | --- |
| control an expression level of Cyclin D1 | suppressed | suppress |  |  |  |  |  |  |  |  |  | GTGKA (CAGE-derived peptide) [GTGKT peptide in which the 273rd Thr residue is substituted with Ala] | induced cell apoptosis | control an expression level of Cyclin D1 |  |  |
| suppress | hindered | suppress; also recorded: hindered | suppressed in phosphorylation | suppressed | bound specifically | reduced | dephosphorylation | decrease | suppressed | suppress | suppressed dephosphorylation | GTGKT (CAGE-derived peptide) | induced apoptosis | control an expression level of Cyclin D1; also recorded: suppressed | suppressed | reduced |
